These are literature values, as cited in patent US20240424119A1, “USE OF POLYPEPTIDE IN RESISTANCE TO ADDICTION AND RELAPSE THEREOF, AND COMPLEX AND POLYPEPTIDE” (SHENZHEN CHENYANG BIOLOGICAL TECHNOLOGY CO., LTD, priority 2021, published 2024).

This data set concerns the target binding of D2R to NR2B (Homo sapiens, UniProt Q13224). The note with it: Liu et al., Neuron 52, 897-909, FIGS. 3M and 3N; cited from earlier work.

Chain of binding of D2R to NR2B (Q13224 27-1484): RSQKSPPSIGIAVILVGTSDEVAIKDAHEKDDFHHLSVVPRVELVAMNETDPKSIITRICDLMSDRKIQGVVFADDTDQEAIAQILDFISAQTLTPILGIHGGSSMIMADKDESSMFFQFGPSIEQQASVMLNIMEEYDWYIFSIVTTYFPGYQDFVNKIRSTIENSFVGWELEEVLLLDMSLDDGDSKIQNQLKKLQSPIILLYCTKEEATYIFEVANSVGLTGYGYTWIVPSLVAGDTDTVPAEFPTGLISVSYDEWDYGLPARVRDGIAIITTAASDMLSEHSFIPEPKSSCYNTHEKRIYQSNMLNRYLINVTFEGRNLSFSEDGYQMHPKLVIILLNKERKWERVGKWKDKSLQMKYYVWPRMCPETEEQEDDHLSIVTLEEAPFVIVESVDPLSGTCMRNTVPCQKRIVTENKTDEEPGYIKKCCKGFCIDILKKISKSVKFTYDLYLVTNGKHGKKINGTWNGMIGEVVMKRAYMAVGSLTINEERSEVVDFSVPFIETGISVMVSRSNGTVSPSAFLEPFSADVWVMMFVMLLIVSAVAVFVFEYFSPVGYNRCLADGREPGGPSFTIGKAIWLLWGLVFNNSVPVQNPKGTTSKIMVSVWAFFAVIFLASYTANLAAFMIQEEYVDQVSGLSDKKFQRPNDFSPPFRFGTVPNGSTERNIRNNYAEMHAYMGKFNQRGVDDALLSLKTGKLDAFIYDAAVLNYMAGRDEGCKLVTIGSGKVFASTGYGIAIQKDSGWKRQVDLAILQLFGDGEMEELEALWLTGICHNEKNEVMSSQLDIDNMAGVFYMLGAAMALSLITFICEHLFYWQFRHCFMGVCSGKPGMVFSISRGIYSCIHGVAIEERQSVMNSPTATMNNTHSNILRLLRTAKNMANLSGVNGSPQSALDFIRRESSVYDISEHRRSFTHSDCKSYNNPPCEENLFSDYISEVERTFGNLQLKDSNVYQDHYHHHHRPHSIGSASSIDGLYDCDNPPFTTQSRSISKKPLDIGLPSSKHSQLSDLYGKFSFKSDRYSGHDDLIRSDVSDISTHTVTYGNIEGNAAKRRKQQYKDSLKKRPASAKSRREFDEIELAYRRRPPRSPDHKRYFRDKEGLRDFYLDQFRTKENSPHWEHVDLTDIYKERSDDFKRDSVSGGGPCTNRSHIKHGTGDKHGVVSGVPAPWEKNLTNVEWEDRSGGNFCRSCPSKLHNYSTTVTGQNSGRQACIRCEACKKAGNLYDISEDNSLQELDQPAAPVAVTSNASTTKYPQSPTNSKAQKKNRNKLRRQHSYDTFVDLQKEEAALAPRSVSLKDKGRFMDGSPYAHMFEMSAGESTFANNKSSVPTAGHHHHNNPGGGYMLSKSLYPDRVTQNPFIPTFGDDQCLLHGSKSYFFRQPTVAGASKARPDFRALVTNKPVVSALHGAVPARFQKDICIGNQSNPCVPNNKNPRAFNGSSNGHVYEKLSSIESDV

Take “P5: Liu et al. polypeptide of IL3 from D2R containing motif T225-A234 (TKRSSRAFRA; UniProt P14416 225-234, looked up, fragment) [Pep P5]”: the “prevention of the binding of D2R to NR2B” value is recorded as “successfully prevented the binding of D2R to NR2B”.
